Assay [1] has as its target T1, avidin monomer affinity resin (Gallus gallus (Chicken), UniProt P02701). The experiment in a line: avidin monomer affinity column, formic acid cleavage mixture; by Procedure XI the polypeptide of interest is not retained and is collected in the column flowthrough. Here is the method: (§1) The crude extract is applied to a 4 mm×5 cm column packed with avidin monomer affinity resin (U.S. Ser. No. 414,785) on a LKB HPLC system equipped with two Model 2150 pumps, Model 2152 controller, and a Model 2140 spectral detector. Sample absorbance is monitored at 280 nm. The crude extract is applied in 100 mM potassium phosphate buffer, pH 6.8 to 7.2 (or other appropriate buffer at a pH of 4.0 to 11.0) at a flow rate of 0.1 ml/min to a column equilibrated with the same buffer. After the sample is loaded, the column is washed with phosphate buffer at a flow rate of 1 ml/min until absorbance returned to the baseline absorbance, and all nonbound material is washed from the resin. The column is then equilibrated with water, followed by application of 5 ml of 2M NaCl. The column is reequilibrated with water. This same NaCl-water wash procedure is repeated four to five times. The sample is eluted using acetic acid or biotin, as detailed in Procedure IX.
Procedure XI. Separation of the Polypeptide of Interest from the Polypeptide for Attachment The dried polypeptide mixture is resuspended in avidin monomer column loading buffer, 100 mM phosphate buffer pH 6.8–7.2, or other appropriate buffer at a pH of between 4.0 and 11.0. Highly pure polypeptide of interest is obtained by passing the cleaved polypeptide mixture over the avidin resin using the procedure described above. […]

Assay [2] deals with T1, avidin monomer affinity resin. The experiment in a line: avidin monomer affinity column, cyanogen bromide cleavage mixture; by Procedure XI the polypeptide of interest is not retained and is collected in the column flowthrough. The procedure: as §1
The hybrid polypeptide is dissolved in 70% (v/v) aqueous formic acid at 23° C. A 50 molar excess of cyanogen bromide is added in a small volume of 70% formic acid, with stirring. The mixture is incubated in the dark under nitrogen at 20–25° C. for 16 to 24 hours. The mixture is then diluted with 10 volumes of water and freeze-dried. Highly pure polypeptide of interest is obtained by Procedure VIII.
Procedure XI. […]

The source of these data is US6072039, “Hybrid polypeptide comparing a biotinylated avidin binding polypeptide fused to a polypeptide of interest” (Rohm and Haas Company, dated 2000).

Regarding PMYGGFLTSEKSQTPLVTLFKNAIIKNAYKKGE [β-endorphin cleaved from the 1.3S:β-endorphin hybrid by formic acid (Example 2)], in assay [1], the binding result is “no binding”.

As for YGGFLTSEKSQTPLVTLFKNAIIKNAYKKGE [β-endorphin cleaved from the hybrid polypeptide by cyanogen bromide (Examples 3 and 6)], the binding result in assay [2] is “no binding”.
